Measured values published in article doi:10.1101/2025.03.07.642005 (bioRxiv, 2025).

Legend:
[1] = target: T1, GatA, subunit A of the aminoacyl-tRNA amidotransferase complex GatCAB (Arabidopsis, UniProt Q9LI77 45-537); assay: SEC
T1 sequence: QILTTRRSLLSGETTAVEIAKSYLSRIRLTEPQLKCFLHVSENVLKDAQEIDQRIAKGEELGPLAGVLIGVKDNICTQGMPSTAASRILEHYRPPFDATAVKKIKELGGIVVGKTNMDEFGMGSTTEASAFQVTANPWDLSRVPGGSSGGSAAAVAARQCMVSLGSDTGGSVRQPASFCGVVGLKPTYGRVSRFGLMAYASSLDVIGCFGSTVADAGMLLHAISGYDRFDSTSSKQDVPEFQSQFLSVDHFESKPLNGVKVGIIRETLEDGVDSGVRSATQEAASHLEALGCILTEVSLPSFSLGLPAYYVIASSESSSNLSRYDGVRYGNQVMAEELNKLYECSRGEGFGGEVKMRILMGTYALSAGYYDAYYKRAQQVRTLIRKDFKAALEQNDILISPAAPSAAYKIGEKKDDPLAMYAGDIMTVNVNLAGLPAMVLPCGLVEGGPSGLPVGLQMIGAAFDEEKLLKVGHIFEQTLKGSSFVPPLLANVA

[2] = target: T2, GatB, subunit B of the aminoacyl-tRNA amidotransferase complex GatCAB (Arabidopsis, UniProt Q9FV81 60-550); assay: SEC
T2 sequence: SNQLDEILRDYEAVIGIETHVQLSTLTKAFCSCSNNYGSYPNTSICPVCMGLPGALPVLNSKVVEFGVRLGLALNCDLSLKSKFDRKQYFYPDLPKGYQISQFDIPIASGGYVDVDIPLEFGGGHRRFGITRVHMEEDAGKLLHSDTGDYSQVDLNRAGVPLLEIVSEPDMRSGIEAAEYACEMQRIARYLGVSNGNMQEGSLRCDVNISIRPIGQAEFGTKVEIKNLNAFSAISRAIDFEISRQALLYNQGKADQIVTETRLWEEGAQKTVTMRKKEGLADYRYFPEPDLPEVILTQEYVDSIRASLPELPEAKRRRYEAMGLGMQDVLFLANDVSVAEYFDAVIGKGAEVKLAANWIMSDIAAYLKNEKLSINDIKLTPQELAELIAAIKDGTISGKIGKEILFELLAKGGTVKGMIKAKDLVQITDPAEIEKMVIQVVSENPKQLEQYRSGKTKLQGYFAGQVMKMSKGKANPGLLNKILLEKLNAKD

B1: GatC, subunit C of the aminoacyl-tRNA amidotransferase complex GatCAB (natural protein)
chain: RSYSSDSDSSVLQPPDVARLAQTARISLTPAEIEECETKIRRVIDWFGQLQQVDVNSVEPAIRAEMDGGNLREDAPETFDNRDSIRASIPSFEDAYLKVPKILNKE
binding result [1]: binds
binding result [2]: binds
